Measurements taken from US7157259B2, “Murine lecithin-cholesterol acyltransferase protein” (Takeda Pharmaceutical Company Limited, priority 1997, dated 2007).

Columns and labels:
[1] = molecular target: T1, human LCAT-like protein/FLAG fusion protein (Homo sapiens, UniProt Q8NCC3); assay: Influence of DFP and DTNB on esterase activity assayed with PNPB; format: biochemical; conditions: inhibitor pre-incubated 25° C. for 1 hour before substrate; PNPB 500 μM; fusion protein 3.4 μg/ml; FIG. 18
T1 construct: made in house; host or cells: baculovirus (Bac-To-Bac); secreted into the culture supernatant
T1 sequence (Q8NCC3 34-412): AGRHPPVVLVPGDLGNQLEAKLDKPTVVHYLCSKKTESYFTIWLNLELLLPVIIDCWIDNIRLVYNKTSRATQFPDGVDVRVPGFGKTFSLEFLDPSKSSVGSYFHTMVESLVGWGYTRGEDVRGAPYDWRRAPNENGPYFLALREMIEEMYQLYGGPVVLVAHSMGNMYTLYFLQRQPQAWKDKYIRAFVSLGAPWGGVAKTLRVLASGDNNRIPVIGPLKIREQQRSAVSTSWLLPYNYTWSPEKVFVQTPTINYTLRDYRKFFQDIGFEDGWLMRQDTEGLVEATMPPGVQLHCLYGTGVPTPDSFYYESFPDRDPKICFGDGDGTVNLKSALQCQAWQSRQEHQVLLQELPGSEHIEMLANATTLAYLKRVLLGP

[2] = Esterase activity assay using the fatty acid ester p-nitrophenyl butyrate (PNPB); format: biochemical
Experimental: Assays were carried out in accordance with the method of Bonelli, F. S. and Jonas, A. [Journal of Biological Chemistry, 264, 14723–14728, 1989]. Thus, to the reaction buffer (10 mM Tris, pH 7.4, 150 mM NaCl, 0.01% EDTA, 1 mM NaN3) was added a graded solution of p-nitrophenyl butyrate (PNPB) in acetonitrile (final concentration:5 mM–50 μM) as the substrate. Then, the human LCAT-like protein/FLAG fusion protein obtained in Example 9 was added (final concentration:3.4 μg/ml) to make 1 ml. The mixture was incubated at 37° C. for 20 minutes and the absorbance at 400 nm was measured at 2-minute intervals. From the percent changes in absorbance at the respective substrate concentrations, initial velocity was calculated, and according to the Lineweaver-Burk method, Vmax and Km were calculated (FIG. 16). […] Using 50 μl of the semi-purified enzyme solution of fractions 6 and 7 (4 ml) obtained in Example 12 (FIG. 14), a similar activity assay was carried out at a substrate concentration of 100 μM.

[3] = PNPB 5 mM–50 μM, protein 3.4 μg/ml, 37° C., compared with human plasma LCAT, FIG. 16

With `O=C(O)c1cc(SSc2ccc([N+](=O)[O-])c(C(=O)O)c2)ccc1[N+](=O)[O-]` [DTNB, 5,5′-dithiobis(2-nitrobenzoic acid)] as the molecule, how does the “inhibition of esterase activity” value [1] read?
The value was “inhibited”.

B1: human LCAT-like protein/FLAG fusion protein: human LCAT-like protein with FLAG peptide fused at C-terminus, expressed in insect cells, purified on anti-FLAG M2 affinity column (protein)
chain: AGRHPPVVLVPGDLGNQLEAKLDKPTVVHYLCSKKTESYFTIWLNLELLLPVIIDCWIDNIRLVYNKTSRATQFPDGVDVRVPGFGKTFSLEFLDPSKSSVGSYFHTMVESLVGWGYTRGEDVRGAPYDWRRAPNENGPYFLALREMIEEMYQLYGGPVVLVAHSMGNMYTLYFLQRQPQAWKDKYIRAFVSLGAPWGGVAKTLRVLASGDNNRIPVIGPLKIREQQRSAVSTSWLLPYNYTWSPEKVFVQTPTINYTLRDYRKFFQDIGFEDGWLMRQDTEGLVEATMPPGVQLHCLYGTGVPTPDSFYYESFPDRDPKICFGDGDGTVNLKSALQCQAWQSRQEHQVLLQELPGSEHIEMLANATTLAYLKRVLLGP
modifications: left off: small tags and cut ends
What does the source list for B1?
Km (Lineweaver-Burk) [2, 3]: agreed with the values of human plasma LCAT on an order basis; Vmax (Lineweaver-Burk) [2, 3]: agreed with the values of human plasma LCAT on an order basis

B2: human LCAT-like protein: recombinant human LCAT-like protein expressed in High Five insect cells, semi-purified on Phenyl-Sepharose HP (fractions 6 and 7) (protein, UniProt Q8NCC3 34-412, looked up)
Lysosomal phospholipase A and …: AGRHPPVVLVPGDLGNQLEAKLDKPTVVHYLCSKKTESYFTIWLNLELLLPVIIDCWIDNIRLVYNKTSRATQFPDGVDVRVPGFGKTFSLEFLDPSKSSVGSYFHTMVESLVGWGYTRGEDVRGAPYDWRRAPNENGPYFLALREMIEEMYQLYGGPVVLVAHSMGNMYTLYFLQRQPQAWKDKYIRAFVSLGAPWGGVAKTLRVLASGDNNRIPVIGPLKIREQQRSAVSTSWLLPYNYTWSPEKVFVQTPTINYTLRDYRKFFQDIGFEDGWLMRQDTEGLVEATMPPGVQLHCLYGTGVPTPDSFYYESFPDRDPKICFGDGDGTVNLKSALQCQAWQSRQEHQVLLQELPGSEHIEMLANATTLAYLKRVLLGP
With B2 as the molecule, how does the esterase activity ([2]; 50 μl semi-purified enzyme solution of fractions 6 and 7 of Example 12, PNPB 100 μM, FIG. 17) read?
Its esterase activity is “confirmed to have esterase activity”.
